We go through two molecules from publication PMC10318897, “The structure of Leptospira interrogans GAPDH sheds light into an immunoevasion factor that can target the anaphylatoxin C5a of innate immunity” (Frontiers in Immunology, 2023).

B1: biotinylated-C5a (ligand)
chain: TLQKKIEEIAAKYKHSVVKKCCYDGACVNNDETCEQRAARISLGPRCIKAFTECCVVASQLRANISHKDMQLGR
modifications: biotinylated (site not stated)
notes: also called immobilized C5a; source: bought: Abvance Biotech (ABVC5ARBIO1)
B2: Leptospira interrogans glyceraldehyde-3-phosphate dehydrogenase (GAPDH) (enzyme)
chain: MTRIAINGFGRIGRLVFRAGIKDPNLEFVAINDLVTPDNLAYLLKYDSTHGRFQGTVEHTEKELIVDGKKILCVSERDPEKLPWKDLKVDYVIESTGLFTDRVGAEKHIKAGAKKVVISAPAKDKDIPTFVMGVNNEKYNPSNDHIVSNASCTTNCLAPIVKVVLDNWGIEEGLMTTIHATTATQPTVDGPSKKDFRGGRGAMQNIIPASTGAAKAVGLCIPEVNGKLTGMSFRVPTPDVSVVDLTVRTTKETSLKEISAKMKAASEGAMKGILGYTEDMVVSNDFVSSTLSSIFDMDACIELNSRFFKLVSWYDNEMGYSNRVLDLIRYMAKKG
notes: also called LiGAPDH; L. interrogans GAPDH; source: E. coli Rosetta(DE3), purified (HisTrap, Superdex 200 SEC); not shown: His6, N-terminal, kept

Series [1] deals with B2. Briefly: BLI. The settings on record: both partners purified.
Series [2] deals with the molecule itself. The experiment in a line: SEC; HiLoad 16/60 Superdex 200 pg in 10 mM HEPES-NaOH (pH 7.4), 150 mM NaCl, 3.4 mM EDTA; elution volume compared with a calibration curve.

Take B1: the kon in series [1] stood at 37.3 ± 0.2 M⁻¹ s⁻¹.

Take B2: in series [2], the “stoichiometry N” value worked out at 4.

By kon is commonly meant a measure of how fast the partners come together. Low readings indicate slow association, high ones fast association. In general, stoichiometry N refers to the number of molecules, sites or subunits per partner or assembly.
